Results: patent US20260176342A1 (CITRYLL B V, published 2026)
Positions count from the first letter of the chain named. Square brackets hold non-standard residues; d marks the D form. Ends that are not written are not given here. Cit = NC(=O)NCCC[C@H](N)C(=O)O

T1: citrullinated histone 2A-derived peptide (SEQ ID NO: 18), C-terminal biotin (human)
T1 construct: Captured by its biotin on NeutrAvidin plates (ELISA) or streptavidin biosensors (Octet); also called histone-derived peptide; citrullinated H2A-derived peptide
T1 peptide: SG[Cit]GKQGGKARA-biotin

T2: citrullinated histone 4-derived peptide (SEQ ID NO: 20), C-terminal biotin (human, citrulline at position 3; biotin at the C-terminus)
T2 construct: Immobilized on streptavidin biosensors (Octet RED96); also called H4-derived peptide; N-terminal histone 4 peptide
T2 peptide: SGXGKGGKGLGK

B1: hMQ22.101j/i (antibody, V domains shown)
VH: QVQLVQSGAEVKKPGASVKVSCKASGYTFTNYGMHWVRQAPGQGLEWMGWINTYSGEATYAQKFQGRVTMTRDTSISTAYMELSRLRSDDTAVYYCLRGYTYQSFDEGGDYWGQGTLVTVSS
VL: DVVMTQSPLSLPVTLGQPASISCRSSQSLVESDGKTYLNWFQQRPGQSPRRLIYLVSKLDSGVPDRFSGSGSGTDFTLKISRVEAEDVGVYYCWQGTHFPYTFGQGTKLEIK
notes: also called VL CDR1 aspartate-mutated antibody (DS site to ES); heavy chain hVH22.101j with light chain hVL22.101i
B2: hMQ22.101j/j (antibody, V domains shown)
VH: B1 VH
VL: B1 VL with E31S
notes: also called VL CDR1 aspartate-mutated antibody (DS site to SS)
B3: hMQ22.101j/h (antibody, V domains shown)
VH: B1 VH
VL: B1 VL with E31A
notes: also called VL CDR1 aspartate-mutated antibody (DS site to AS)
B4: hMQ22.101f/g (antibody, V domains shown)
VH: B1 VH with Q1R, V2I
VL: B1 VL with V30L, E31D
notes: Full-size humanized antibody; also called humanized therapeutic antibody with heavy chain hVH22.101f and light chain hVL22.101g; tACPA
B5: hMQ22.101j/LC17 (antibody, V domains shown)
VH: B1 VH
VL: B1 VL with V30L, E31D, S32T
notes: also called isomerization mutant; heavy chain hVH22.101j with light chain hVL22.101LC17
B6: hMQ22.101j/LC27 (antibody, V domains shown)
VH: B1 VH
VL: B1 VL with V30L, E31D, S32T, G34A
notes: also called isomerization mutant; heavy chain hVH22.101j with light chain hVL22.101LC27
B7: hMQ22.101j/LC41 (antibody, V domains shown)
VH: B1 VH
VL: B1 VL with V30L, E31D, S32A
notes: also called isomerization mutant; heavy chain hVH22.101j with light chain hVL22.101LC41
B8: hMQ22.101HC7/LC17 (antibody, V domains shown)
VH: B1 VH with A16S, M70I, R72A, T74E, I76T, R85S, D89E
VL: B1 VL with V30L, E31D, S32T
notes: also called isomerization mutant; heavy chain hVH22.101HC7 with light chain hVL22.101LC17
B9: hMQ22.101HC7/LC21 (antibody, V domains shown)
VH: B1 VH with A16S, M70I, R72A, T74E, I76T, R85S, D89E
VL: B1 VL with V30L, E31D, G34A
notes: also called isomerization mutant; heavy chain hVH22.101HC7 with light chain hVL22.101LC21
B10: hMQ22.101HC9/LC42 (antibody, V domains shown)
VH: B1 VH with Q1R, V2I, A61V, Q62D, K63D
VL: B1 VL with V30L, E31D, S32N
notes: also called isomerization mutant; heavy chain hVH22.101HC9 with light chain hVL22.101LC42
B11: hMQ22.101HC8/LC21 (antibody, V domains shown)
VH: B1 VH with A16S, A61V, Q62D, K63D, M70I, R72A, T74E, I76T, R85S, D89E
VL: B1 VL with V30L, E31D, G34A
notes: also called isomerization mutant; heavy chain hVH22.101HC8 with light chain hVL22.101LC21
B12: hMQ22.101HC9/LC41 (antibody, V domains shown)
VH: B1 VH with Q1R, V2I, A61V, Q62D, K63D
VL: B1 VL with V30L, E31D, S32A
notes: also called isomerization mutant; heavy chain hVH22.101HC9 with light chain hVL22.101LC41
B13: hMQ22.101HC9/LC27 (antibody, V domains shown)
VH: B1 VH with Q1R, V2I, A61V, Q62D, K63D
VL: B1 VL with V30L, E31D, S32T, G34A
notes: also called isomerization mutant; heavy chain hVH22.101HC9 with light chain hVL22.101LC27
B14: hMQ22.101HC7/LC41 (antibody, V domains shown)
VH: B1 VH with A16S, M70I, R72A, T74E, I76T, R85S, D89E
VL: B1 VL with V30L, E31D, S32A
notes: also called isomerization mutant; heavy chain hVH22.101HC7 with light chain hVL22.101LC41

Biological target: T1, citrullinated histone 2A-derived …
Assay: CMC ELISA, biotinylated peptide on NeutrAvidin-coated plate, anti-human-HRP, OD 450 nm
Procedure: (§1) hMQ22.101j/e samples from week 0, 2, 4, 6 and 8, and hMQ22.101f/g samples from week 0, 3 and 6 were subjected to an in house-validated CMC ELISA. 96-well ELISA plates were coated with NeutrAvidin™ ([…]) by overnight incubation at 4° C. Wells were washed 5 times with PBS-Tween® (polysorbate) 20 (PBS-T) and blocked by a 2 hour incubation with PBS-T+1% Bovine serum albumin (BSA) at room temperature (RT). After 5 more washes with PBS-T, wells were incubated for 1 hour at RT with a histone-derived peptide (SEQ ID NO 18: SGXGKQGGKARA), containing a citrulline (X) at position 3 and a C-terminal biotin (40 ng/well) in PBS-T+0.2% BSA. After another 5 washes with PBS-T, a calibration curve made from a reference lot of hMQ22.101j/e or hMQ22.101f/g by adding to the wells starting at […] and further diluted at a 1:1 ratio until reaching a concentration of 0.66 ng/ml in PBS-T+0.2% BSA. Spiked quality control (QC) samples made from the same reference lot hMQ22.101j/e or hMQ22.101f/g at higher (HQC, 250 ng/ml), middle (MQC, 50 ng/ml), lower (LQC 3.75 ng/ml) and lower limit quality control (LLQC, 1.25 ng/ml) were diluted in PBS-T+0.2% BSA and added to the plate as well. These QC samples were used in order to validate the ELISA results.
Finally, accelerated stability samples that had been incubated for 0, 2, 3, 4, 6 and 8 weeks at 37° C. were added to the same plate at a concentration of 40 ng/ml in PBS-T+0.2% BSA and incubated for 2 hours at RT. Wells were washed 5 times with PBS-T and incubated with rabbit anti-human-HRP antibody (1:12.000 in PBS-T+0.2% BSA) for 1 hour at RT followed by 3 washes with PBS-T and 3 washes with PBS. Wells were incubated 10 min with TMB substrate before stopping the reaction with 2 M H₂SO₄ after which the optical density was measured at wavelength of 450 nm. A sigmoidal calibration curve was plotted and fitted using the values from the serial diluted reference antibody. Concentrations of the QC samples and accelerated stability samples were recalculated using the equation from the sigmoidal fitted curve.

Question: Does B1 bind?
Answer: Result: binds

Question: Does B2 bind?
Answer: Result: binds

Question: Does B3 bind?
Answer: Result: binds

Biological target: T1, citrullinated histone 2A-derived …
Assay: CMC ELISA, biotinylated peptide on NeutrAvidin-coated plate, anti-human-HRP, OD 450 nm, interpolated on a calibration curve
Procedure: as §1, with “Spiked quality control (QC) samples made from the same reference lot hMQ22.101j/e or hMQ22.101f/g at higher (HQC, 250 ng/ml), middle (MQC, 50 ng/ml), lower (LQC 3.75 ng/ml) and lower limit quality control (LLQC, 1.25 ng/ml) were diluted in PBS-T+0.2% BSA and added to the plate as well. These QC samples were used in order to validate the ELISA results.” left out
Finally, accelerated stability samples that had been incubated for 0, 2, 3, 4, 6 and 8 weeks at 37° C. were added to the same plate at a concentration of 40 ng/ml in PBS-T+0.2% BSA and incubated for 2 hours at RT. […] Wells were incubated 10 min with TMB substrate before stopping the reaction with 2 M H₂SO₄ after which the optical density was measured at wavelength of 450 nm. […]

Question: Does B4 bind?
Answer: Result: binds

Biological target: T2, citrullinated histone 4-derived peptide …
Assay: Octet RED96 off-rate screen, biotinylated peptide on streptavidin biosensors, antibody 72 nM, 30 C
Procedure: (§2) Off-rate screening of the isomerization-mutated antibodies was performed on an Octet® RED96 (biomolecule detection system) instrument (Pall ForteBio). All measurements were performed at 30° C. Streptavidin (SA) biosensors were first washed for 50 sec with PBS. 1 μg/ml N-terminal histone 2A (SEQ ID NO: 18) and histone 4 (SEQ ID NO: 20) peptides, containing both a citrulline at position 3 and a biotin at the C-terminus, were immobilized on SA biosensors for 200 sec, washed with PBS for 50 sec and excess reactive streptavidin molecules blocked with EZ-Link™ biocytin for 200 sec. After two additional 50 sec wash steps in PBS, antibodies at a concentration of 72 nM diluted in PBS were allowed to bind to the biosensors for 200 sec. Sensors were subsequently placed in PBS for 4000 sec in order to measure their dissociation rates.
(§3) Background signals generated with non-coated biosensors, which have been exposed to the various antibodies as well as signals from coated biosensors that have not been exposed to the various antibodies, have been subtracted before dissociation curves for each antibody were plotted. Both histone 2A and histone 4 dissociation rates constants (kdis×E-07 (1/s)) for each antibody were calculated applying a 1:1 interaction model (fitting local, full) using ForteBio data analysis software 8.1.

Question: Does B5 bind?
Answer: Result: binds

Question: Does B6 bind?
Answer: Result: binds

Question: Does B7 bind?
Answer: Result: binds

Question: Does B8 bind?
Answer: Result: binds

Question: Does B9 bind?
Answer: Result: binds

Question: Does B10 bind?
Answer: Result: binds

Question: Does B11 bind?
Answer: Result: binds

Question: Does B12 bind?
Answer: Result: binds

Question: Does B13 bind?
Answer: Result: binds

Question: Does B14 bind?
Answer: Result: binds

Question: Does B4 bind?
Answer: Result: binds

Biological target: T1, citrullinated histone 2A-derived …
Assay: as above
Procedure: as §2, §3

Question: Does B5 bind?
Answer: Result: binds

Question: Does B6 bind?
Answer: Result: binds

Question: Does B7 bind?
Answer: Result: binds

Question: Does B8 bind?
Answer: Result: binds

Question: Does B9 bind?
Answer: Result: binds

Question: Does B10 bind?
Answer: Result: binds

Question: Does B11 bind?
Answer: Result: binds

Question: Does B12 bind?
Answer: Result: binds

Question: Does B13 bind?
Answer: Result: binds

Question: Does B14 bind?
Answer: Result: binds
